One molecule from patent US20030130184, “Methods of inducing cell death” (The University of Bristol, published 2003) can be followed below.

In this data set the target is T1, HPV16 E2Ct (E2 DNA binding domain) (Human papillomavirus type 16, UniProt P0DKA0 SEQ:1-87).
T1 chain: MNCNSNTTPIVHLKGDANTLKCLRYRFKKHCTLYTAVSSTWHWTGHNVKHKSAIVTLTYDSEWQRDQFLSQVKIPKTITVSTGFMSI
The data set is described as follows: EMSA; 10, 50, 250 nM protein; binds tightly; 20 mM HEPES pH 7.9, 25 mM KCl, poly[d(I-C)], 20 C; refolded E2Ct also binds (FIG. 7a). The settings on record: chain copies: 2 (stated, dimer); label: 32P 5' end. (In EMSA bound probe runs differently from free probe, usually more slowly.)

B1: HPV16 E2 site 1, E2(1) (dsDNA)
DNA 1: TTGAACCGAAACCGGTTAGT
DNA 2: ACTAACCGGTTTCGGTTCAA
In the case of B1, the binding result is “binds”.
